Reference: paper PMC5518211 (Journal of Molecular Recognition, 2017)
Read-outs that look alike come from different tables or passages of the source. Ends that are not written are not given here.

Columns and labels:
Experiment in all cases: SPR
[1] = target: T1, Calmodulin ( (human brain CaM or …, UniProt P0DP23 1-149))
[2] = target: T1, Calmodulin; remark: listed apart in the source
[3] = target: T1, Calmodulin; remark: listed apart in the source
[4] = target: T1, Calmodulin; remark: listed apart in the source

LKKFNARRKLKGAILTTMLA (not fully specified) [Peptide corresponding to the CaM-binding region of CaMKIIα (CaMKII 290-309)]
koff [1]: ~1 s⁻¹ | kon [1]: ~1e+09 M⁻¹ s⁻¹ | Kd [2]: 7.1 nM

B1: Full-length recombinant human neurogranin with a His-tag at the N-terminus (natural protein)
chain: MDCCTENACSKPDDDILDIPLDDPGANAAAAKIQASFRGHMARKKIKSGERGRKGPGPGGPGGAGVARGGAGGGPSGD
Kd [3]: 480 nM | koff [3]: 0.16 s⁻¹ | kon [3]: 340000 M⁻¹ s⁻¹ | Kd [4]: 19000 nM
